PMC11982978 (2025)
Square brackets hold non-standard residues; d marks the D form. Ends that are not written are not given here.

Target: Active phosphorylated His6-tagged ERK2 WT (rat (p-0033 says mouse), UniProt P63086 3-358, phosphorylated (active form; sites not given))

- IC50: 92 µM
Binder: [dL][dC][dA][dR][dR]G[dL][dY][dC][dL][dS][dL][dD][dH] (cysteine pairing not given here) [FAAP100 D-peptide]
